Data on 1 substance can be found in paper PMC9157036.

This experiment addresses ferritin-based 24-meric nanoparticle with N-terminal protein A tag. In words: SPR. As to conditions: Fc fusion.

The Kd is the constant that tells how readily two partners part at equilibrium. As to “RBD (residues 331aa-524aa) of the SARS-CoV-2 Omicron spike protein with an Fc tag in the C-terminus (from UniProt P0DTC2 331-524)”, the Kd amounted to 0.187 µM.
